# Measurements taken from US20130344055A1, “ANTIMICROBIAL AGENTS” (priority 2010, published 2013).
# B1: Cpl1: endolysin Cpl-1 (protein)
# chain: MVKKNDLFVDVSSHNGYDITGILEQMGTTNTIIKISESTTYLNPCLSAQVEQSNPIGFYHFARFGGDVAEAEREAQFFLDNVPMQVKYLVLDYEDDPSGDAQANTNACLRFMQMIADAGYKPIYYSYKPFTHDNVDYQQILAQFPNSLWIAGYGLNDGTANFEYFPSMDGIRWWQYSSNPFDKNIVLLDDEEDDKPKTAGTWKQDSKGWWFRRNNGSFPYNKWEKIGGVWYYFDSKGYCLTSEWLKDNEKWYYLKDNGAMATGWVLVGSEWYYMDDSGAMVTGWVKYKNNWYYMTNERGNMVSNEFIKSGKGWYFMNTNGELADNPSFTKEPDGLITVA
# modifications: Streptococcus pneumoniae Phage Cpl-1
# B2: Cpl1-Pseudin1: Cpl1 fusion variant with one peptide stretch, Pseudin1 (protein)
# chain: MVKKNDLFVDVSSHNGYDITGILEQMGTTNTIIKISESTTYLNPCLSAQVEQSNPIGFYHFARFGGDVAEAEREAQFFLDNVPMQVKYLVLDYEDDPSGDAQANTNACLRFMQMIADAGYKPIYYSYKPFTHDNVDYQQILAQFPNSLWIAGYGLNDGTANFEYFPSMDGIRWWQYSSNPFDKNIVLLDDEEDDKPKTAGTWKQDSKGWWFRRNNGSFPYNKWEKIGGVWYYFDSKGYCLTSEWLKDNEKWYYLKDNGAMATGWVLVGSEWYYMDDSGAMVTGWVKYKNNWYYMTNERGNMVSNEFIKSGKGWYFMNTNGELADNPSFTKEPDGLITVAGLNTLKKVFQGLHEAIKLINNHVQ
# B3: Cpl1-Indolicidin: Cpl1 fusion variant with one peptide stretch, Indolicidin (protein)
# chain: MVKKNDLFVDVSSHNGYDITGILEQMGTTNTIIKISESTTYLNPCLSAQVEQSNPIGFYHFARFGGDVAEAEREAQFFLDNVPMQVKYLVLDYEDDPSGDAQANTNACLRFMQMIADAGYKPIYYSYKPFTHDNVDYQQILAQFPNSLWIAGYGLNDGTANFEYFPSMDGIRWWQYSSNPFDKNIVLLDDEEDDKPKTAGTWKQDSKGWWFRRNNGSFPYNKWEKIGGVWYYFDSKGYCLTSEWLKDNEKWYYLKDNGAMATGWVLVGSEWYYMDDSGAMVTGWVKYKNNWYYMTNERGNMVSNEFIKSGKGWYFMNTNGELADNPSFTKEPDGLITVAILPWKWPWWPWRR
# B4: PK2-Cecropin A (A. aegyptii)-LysK: PK2, then Cecropin A (A. aegyptii), N-terminally fused to LysK (protein)
# chain: MKRKKRKKRKKRKKRKKRKGGLKKLGKKLEGAGKRVFNAAEKALPVVAGAKALRKAKTQAEINKRLDAYAKGTVDSPYRVKKATSYDPSFGVMEAGAIDADGYYHAQCQDLITDYVLWLTDNKVRTWGNAKDQIKQSYGTGFKIHENKPSTVPKKGWIAVFTSGSYEQWGHIGIVYDGGNTSTFTILEQNWNGYANKKPTKRVDNYYGLTHFIEIPVKAGTTVKKETAKKSASKTPAPKKKATLKVSKNHINYTMDKRGKKPEGMVIHNDAGRSSGQQYENSLANAGYARYANGIAHYYGSEGYVWEAIDAKNQIAWHTGDGTGANSGNFRFAGIEVCQSMSASDAQFLKNEQAVFQFTAEKFKEWGLTPNRKTVRLHMEFVPTACPHRSMVLHTGFNPVTQGRPSQAIMNKLKDYFIKQIKNYMDKGTSSSTVVKDGKTSSASTPATRPVTGSWKKNQYGTWYKPENATFVNGNQPIVTRIGSPFLNAPVGGNLPAGATIVYDEVCIQAGHIWIGYNAYNGNRVYCPVRTCQGVPPNQIPGVAWGVFK
# B5: LysK: endolysin LysK (protein)
# chain: MAKTQAEINKRLDAYAKGTVDSPYRVKKATSYDPSFGVMEAGAIDADGYYHAQCQDLITDYVLWLTDNKVRTWGNAKDQIKQSYGTGFKIHENKPSTVPKKGWIAVFTSGSYEQWGHIGIVYDGGNTSTFTILEQNWNGYANKKPTKRVDNYYGLTHFIEIPVKAGTTVKKETAKKSASKTPAPKKKATLKVSKNHINYTMDKRGKKPEGMVIHNDAGRSSGQQYENSLANAGYARYANGIAHYYGSEGYVWEAIDAKNQIAWHTGDGTGANSGNFRFAGIEVCQSMSASDAQFLKNEQAVFQFTAEKFKEWGLTPNRKTVRLHMEFVPTACPHRSMVLHTGFNPVTQGRPSQAIMNKLKDYFIKQIKNYMDKGTSSSTVVKDGKTSSASTPATRPVTGSWKKNQYGTWYKPENATFVNGNQPIVTRIGSPFLNAPVGGNLPAGATIVYDEVCIQAGHIWIGYNAYNGNRVYCPVRTCQGVPPNQIPGVAWGVFK
# modifications: Staphylococcus aureus Phage K
# B6: Cecropin A (A. aegyptii)-LysK: LysK fusion variant with one peptide stretch, Cecropin A (A. aegyptii) (protein)
# chain: MGGLKKLGKKLEGAGKRVFNAAEKALPVVAGAKALRKAKTQAEINKRLDAYAKGTVDSPYRVKKATSYDPSFGVMEAGAIDADGYYHAQCQDLITDYVLWLTDNKVRTWGNAKDQIKQSYGTGFKIHENKPSTVPKKGWIAVFTSGSYEQWGHIGIVYDGGNTSTFTILEQNWNGYANKKPTKRVDNYYGLTHFIEIPVKAGTTVKKETAKKSASKTPAPKKKATLKVSKNHINYTMDKRGKKPEGMVIHNDAGRSSGQQYENSLANAGYARYANGIAHYYGSEGYVWEAIDAKNQIAWHTGDGTGANSGNFRFAGIEVCQSMSASDAQFLKNEQAVFQFTAEKFKEWGLTPNRKTVRLHMEFVPTACPHRSMVLHTGFNPVTQGRPSQAIMNKLKDYFIKQIKNYMDKGTSSSTVVKDGKTSSASTPATRPVTGSWKKNQYGTWYKPENATFVNGNQPIVTRIGSPFLNAPVGGNLPAGATIVYDEVCIQAGHIWIGYNAYNGNRVYCPVRTCQGVPPNQIPGVAWGVFK
# B7: PK2-LysK: LysK fusion variant with one peptide stretch, PK2 (protein)
# chain: MKRKKRKKRKKRKKRKKRKAKTQAEINKRLDAYAKGTVDSPYRVKKATSYDPSFGVMEAGAIDADGYYHAQCQDLITDYVLWLTDNKVRTWGNAKDQIKQSYGTGFKIHENKPSTVPKKGWIAVFTSGSYEQWGHIGIVYDGGNTSTFTILEQNWNGYANKKPTKRVDNYYGLTHFIEIPVKAGTTVKKETAKKSASKTPAPKKKATLKVSKNHINYTMDKRGKKPEGMVIHNDAGRSSGQQYENSLANAGYARYANGIAHYYGSEGYVWEAIDAKNQIAWHTGDGTGANSGNFRFAGIEVCQSMSASDAQFLKNEQAVFQFTAEKFKEWGLTPNRKTVRLHMEFVPTACPHRSMVLHTGFNPVTQGRPSQAIMNKLKDYFIKQIKNYMDKGTSSSTVVKDGKTSSASTPATRPVTGSWKKNQYGTWYKPENATFVNGNQPIVTRIGSPFLNAPVGGNLPAGATIVYDEVCIQAGHIWIGYNAYNGNRVYCPVRTCQGVPPNQIPGVAWGVFK
# B8: KZ144-PK: KZ144 fusion variant with one peptide stretch, PK (protein)
# chain: MKVLRKGDRGDEVCQLQTLLNLCGYDVGKPDGIFGNNTFNQVVKFQKDNCLDSDGIVGKNTWAELFSKYSPPIPYKTIPMPTANKSRAAATPVMNAVENATGVRSQLLLTFASIESAFDYEIKAKTSSATGWFQFLTGTWKTMIENYGMKYGVLTDPTGALRKDPRISALMGAELIKENMNILRPVLKREPTDTDLYLAHFFGPGAARRFLTTGQNELAATHFPKEAQANPSIFYNKDGSPKTIQEVYNLMDGKVAAHRKKRKKRKKRK
# B9: EL188: Pseudomonas aeruginosa bacteriophage endolysin EL188 (phage EL) (protein)
# chain: MNFRTKNGYRDLQALVKELGLYTGQIDGVWGKGTSSSTETLLRGYAEVVGKNTGGIGLPTTSDASGYNVITALQRNLAFLGLYSLTVDGIWGNGTLSGLDKAFEVYKERYRTPTYDIAWSGKVSPAFTAKVKDWCGVHVPNHRAPHWLMACMAFETGQTFSPSIKNAAGSEAYGLIQFMSPAANDLNVPLSVIRSMDQLTQLDLVFKYFEMWMKRGKRYTQLEDFYLTIFHPASVGKKADEVLFLQGSKAYLQNKGFDVDKDGKITLGEISSTLYTTYYKGLLPENRHVISY
# modifications: Pseudomonas aeruginosa phage EL
# B10: EL188-PK: EL188 fusion variant with one peptide stretch, PK (protein)
# chain: MNFRTKNGYRDLQALVKELGLYTGQIDGVWGKGTSSSTETLLRGYAEVVGKNTGGIGLPTTSDASGYNVITALQRNLAFLGLYSLTVDGIWGNGTLSGDKAFEVYKERYRTPTYDIAWSGKVSPAFTAKVKDWCGVHVPNHRAPHWLMACMAFETGQTFSPSIKNAAGSEAYGLIQFMSPAANDLNVPLSVIRSMDQLTQLDLVFKYFEMWMKRGKRYTQLEDFYLTIFHPASVGKKADEVLFLQGSKAYLQNKGFDVDKDGKITLGEISSTLYTTYYKGLLPENRHVISYKRKKRKKRK
# B11: KZ144: Pseudomonas aeruginosa bacteriophage endolysin KZ144 (phage phiKZ) (protein)
# chain: KVLRKGDRGDEVCQLQTLLNLCGYDVGKPDGIFGNNTFNQVVKFQKDNCLDSDGIVGKNTWAELFSKYSPPIPYKTIPMPTANKSRAAATPVMNAVENATGVRSQLLLTFASIESAFDYEIKAKTSSATGWFQFLTGTWKTMIENYGMKYGVLTDPTGALRKDPRISALMGAELIKENMNILRPVLKREPTDTDLYLAHFFGPGAARRFLTTGQNELAATHFPKEAQANPSIFYNKDGSPKTIQEVYNLMDGKVAAHRK
# modifications: Pseudomonas aeruginosa phage KZ
# System: Streptococcus bacteria
# Assay: In vitro antibacterial activity of Cpl1 fusion variants
# Format: cell-based
# Conditions: with EDTA 0.5 mM; 10^6 cells/ml; 30 minutes at RT
row,Molecule,"Average log reduction, Streptococcus"
1,B1,+ (+: 1 log)
2,B2,++ (++: 2-3 log)
3,B3,++ (++: 2-3 log)

# System: Staphylococcus bacteria
# Assay: In vitro antibacterial activity of Lysostaphin and LysK fusion variants
# Format: cell-based
# Conditions: LysK variants; with EDTA 0.5 mM; 10^6 cells/ml; 30 minutes at RT
row,Molecule,"Average log reduction, Staphylococcus"
1,B4,+++ (+++: 4 or more logs)
2,B5,+ (+: 1 log)
3,B6,++ (++: 2-3 log)
4,B7,++ (++: 2-3 log)

# System: Pseudomonas bacteria
# Assay: In vitro antibacterial activity of KZ144 and EL188 fusion variants
# Format: cell-based
# Conditions: with EDTA 0.5 mM; 10^6 cells/ml; 30 minutes at RT
# Procedure: Exponential growing Gram-negative bacterial cells (OD600 nm=0.6) were 100-fold diluted to a final density of about 10^6 cells/ml in 5 mM HEPES pH 7.4 and incubated for 30 minutes at room temperature without shaking with the different modified OBPgpLYS variants (in Elution Buffer in an end concentration of 1500 nM). After incubation cell suspensions and as a control untreated bacterial cells without any added modified OBPgpLYS variant were diluted three times (respectively 10^5-10^4-10^3 cells/ml) in 1× concentrated PBS buffer and 100 μl of each dilution was plated out on LB-medium. […] All samples were replicated in threefold. Averages +/− standard deviations are represented.
# The purification of the fusion proteins and the antimicrobial activity assay was performed as described in Example 1.
row,Molecule,"Average log reduction, Pseudomonas"
1,B8,+ (+: 1 log)
2,B9,+/− (+/−: <1 log)
3,B10,+ (+: 1 log)
4,B11,+/− (+/−: <1 log)
